# Reference: IntAct's records for PubMed 15848184
# B1: Protein EAP1 (Saccharomyces cerevisiae), P36041 (parent)
# chain: MELNDPSIISSSQFSGELSDSDTAAATHKSQQAISNLFQKLAKKGREEKPIGSVESSTDSSNISVATSGNNKESNKKKNKKTAMLNFSSLTDPITNYKPMDLQYKTYAYSMNELYHLKPSLASASYEEDPLISELVRSLPKRKFWRLRMGPPDQKHANNHHFNGNNGGGSWKAGYKNGKNDERRMSRTKNMQGGKRRSQQDDEEKKIDQEMLEMDKNLQLGGDVGHSIADFEDWKAKMKELELKKLSKSKGISNSTAIAPRESASHETPTDLRPVIPRGPSSITDFLNLKRQDKKEESSQQTPGIPVGQPSLSKTSIEQVNELETNSDLGKSSSSRFSSFFNKSATSLPSLDNNNQVPSSNVSVVNNDGNSTPHQSGSRLMSFFKESRSSTPNAESQLLSASDKDNGKMQTLPQFQQQPQQMQPMAFTQHPPNNNAFFNGLLNKGKSETSTPPPPPPGLIAHQGPQFPVMGVPPNFPQRMMPPPPGLVQFQKDSKDVNKKEDRQLRQNKNPNGTRNSKGKQEETATPDLPQQQYMPPPPPPGFFPMHPNFPNGPMPPLPQGFPIPPNGMLPVTGQQPQPPYPNMMLQGNFPPNFQQGFGSNSPMPIPSIINANGKNVTNQLPPGLNSKKNIK
# partner: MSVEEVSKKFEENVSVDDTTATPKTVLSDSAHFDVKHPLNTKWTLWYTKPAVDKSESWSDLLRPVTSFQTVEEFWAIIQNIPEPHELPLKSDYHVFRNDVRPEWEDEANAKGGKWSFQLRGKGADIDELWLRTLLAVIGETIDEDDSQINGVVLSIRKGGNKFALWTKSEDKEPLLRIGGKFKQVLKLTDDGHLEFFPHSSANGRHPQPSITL
# Variants of: B1
# Conditions: with if4e_yeast CDC33, P07260
row,Variant,effect of a mutation on the interaction
1,Y109A,disrupting interaction
2,Y109A;L114A,disrupting interaction
